According to US20230203185A1 (ECO ANIMAL HEALTH, published 2023):
Changes are numbered by the printed parent chain.

B1: VHH 015 (2G01) (VHH)
VHH: QVQLVESGGGLVQAGDTLRLSCTASGRTFSSYSMGWFRQAPGKEREFVAAITWNGYITNYADSVKGRFTISRDNTKNTVFLQMNSLKPEETAVYYCAATTFSTTSPISRTYNYWGPGTQVTVSS
notes: Llama single domain antibody; also called 150(#15); VHCDR3 150(#15); not shown: tags: c-myc tag in periplasmic extract (ELISA, FACS); FLAG and His tags in purified VHH (SPR, infection assays)
B2: VHH 001 (1B02) (VHH)
VHH: EVQLVESGGGLVQAGGSLSLSCAASGGTLAMYAMSWFRQAPGKDRKFVAAINTSGRYSRYADSVKGRFTISRDNAKNTATLQMNSLEPEDTAVYYCAATDKGNWALAMSYDYWGQGTQVTVSS
notes: Llama single domain antibody; also called 144(#1); VHCDR3 144(#1); not shown: tags: c-myc tag in periplasmic extract (ELISA, FACS); FLAG and His tags in purified VHH (SPR, infection assays)
B3: VHH 023 (4E10) (VHH)
VHH: QVQLVESGGGLVQAGGSLRLSCVASSRTSSTYAMGWFRQGPGKERDFVAIISFGGTFYADSVKGRFTISRDNAKNTVYLQMNSLKPEDTAVYYCAAGRTLSKRADSYASWGQGTQVTVSS
notes: Llama single domain antibody; also called 70(#23); VHCDR3 70(#23); not shown: tags: c-myc tag in periplasmic extract (ELISA, FACS); FLAG and His tags in purified VHH (SPR, infection assays)
B4: VHH 002 (1B04) (VHH)
VHH: QVQLVESGGGLVQAGGSLRLSCAASGLTFVTYSMGWFRQAPGKEREFVAAHRWSGSAYYAEHADSVEGRFTISRDYAKNMLYLQMNSLKHEDTAVYYCAAGVGSAAQYRYWGRGTQVTVSS
notes: Llama single domain antibody; also called 76(#2); VHCDR3 76(#2); not shown: tags: c-myc tag in periplasmic extract (ELISA, FACS); FLAG and His tags in purified VHH (SPR, infection assays)
B5: VHH 016 (2H11) (VHH)
VHH: EVQLVESGGGLVQAGGSLRLSCAASGRTFAPGSMGWFRQAPGKEREFVAAHRWSGSAYYADYADSVEGRFTISRDYAKNMVYLQMNSLKPGDTAVYYCAAGVGSAAQYTYWGRGTQVTVSS
notes: Llama single domain antibody; also called 77(#16); VHCDR3 77(#16); not shown: tags: c-myc tag in periplasmic extract (ELISA, FACS); FLAG and His tags in purified VHH (SPR, infection assays)
B6: VHH 017 (3D03) (VHH)
VHH: QLQLVESGGGLVQPGGSLRLSCAASGFTLDDYTIGWFRQAPGKEREGVSCINSITSNTYYADSVKGRFTISRDNAKNTVYLQMNSLTAEDTAIYYCAADSGLFSGSSCLKYRAMRFGSWGQGTQVTVSS
notes: Llama single domain antibody; also called 29(#17); VHCDR3 29(#17); not shown: tags: c-myc tag in periplasmic extract (ELISA, FACS); FLAG and His tags in purified VHH (SPR, infection assays)
B7: VHH 012 (2C07) (VHH)
VHH: QLQLVESGGGLVQAGGSLRLSCVASGRTFSRYAMGWFRQAPGKEREFVAAIAWSTGSTYYANSVKGRFAISGDNAKNTVYLQMNSLKPEDTAVYYCAAETRYCSGFGCLDPRTYGSWGQGTQVTVSS
notes: Llama single domain antibody; also called 41(#12); VHCDR3 41(#12); not shown: tags: c-myc tag in periplasmic extract (ELISA, FACS); FLAG and His tags in purified VHH (SPR, infection assays)
B8: VHH 018 (3E01) (VHH)
VHH: QVQLQESGGGLVQVGGSLRLSCVASGRAPSRYVMGWFRQAPGQEREFVAGIAWSGRAPYADSVKGRSTISRDNAKNTVYLQMNSLKPEDTGVYYCAGGEGAIRWTTLDAYDYWGQGTQVTVSS
notes: Llama single domain antibody; also called 49(#18); VHCDR3 49(#18); not shown: tags: c-myc tag in periplasmic extract (ELISA, FACS); FLAG and His tags in purified VHH (SPR, infection assays)
B9: VHH 019 (3E11) (VHH)
VHH: B8 VHH with G16S, A24T, A28T, G50A, A52S, S67F, R103K
notes: Llama single domain antibody; also called 47(#19); VHCDR3 47(#19); not shown: tags: c-myc tag in periplasmic extract (ELISA, FACS); FLAG and His tags in purified VHH (SPR, infection assays)
B10: VHH 020 (3H11) (VHH)
VHH: B8 VHH with A28T, S67F, T68V, N73S, P87S, R103L, L107P, D108G, D111N
notes: Llama single domain antibody; also called 48(#20); VHCDR3 48(#20); not shown: tags: c-myc tag in periplasmic extract (ELISA, FACS); FLAG and His tags in purified VHH (SPR, infection assays)
B11: VHH 011 (2B06) (VHH)
VHH: EVQLVESGGGLVQAGGSLRLSCAASGRTLSVYGTGWFRQAPGKEREFVAGISGTTGSTLYADSVKGRFTISRDNAKNTVYLQMNSLKSEDTALYYCAAGGRVYITTSSWAYWGQGTQVTVSS
notes: Llama single domain antibody; also called 57(#11); VHCDR3 57(#11); not shown: tags: c-myc tag in periplasmic extract (ELISA, FACS); FLAG and His tags in purified VHH (SPR, infection assays)

Each binder was assayed against T1, pCD163-SRCR1-9-huFc (porcine, UniProt Q2VL90 47-1028, limits assumed) (assay: SPR (Biacore 3000), antigen amine-coupled on CM5, VHH injected, pH 7.4).
T1 construct: also called pCD163:SRCR1-9-Fc; pCD163SRCR1-9-Fc; not shown: human Fc (huFc)
T1 sequence: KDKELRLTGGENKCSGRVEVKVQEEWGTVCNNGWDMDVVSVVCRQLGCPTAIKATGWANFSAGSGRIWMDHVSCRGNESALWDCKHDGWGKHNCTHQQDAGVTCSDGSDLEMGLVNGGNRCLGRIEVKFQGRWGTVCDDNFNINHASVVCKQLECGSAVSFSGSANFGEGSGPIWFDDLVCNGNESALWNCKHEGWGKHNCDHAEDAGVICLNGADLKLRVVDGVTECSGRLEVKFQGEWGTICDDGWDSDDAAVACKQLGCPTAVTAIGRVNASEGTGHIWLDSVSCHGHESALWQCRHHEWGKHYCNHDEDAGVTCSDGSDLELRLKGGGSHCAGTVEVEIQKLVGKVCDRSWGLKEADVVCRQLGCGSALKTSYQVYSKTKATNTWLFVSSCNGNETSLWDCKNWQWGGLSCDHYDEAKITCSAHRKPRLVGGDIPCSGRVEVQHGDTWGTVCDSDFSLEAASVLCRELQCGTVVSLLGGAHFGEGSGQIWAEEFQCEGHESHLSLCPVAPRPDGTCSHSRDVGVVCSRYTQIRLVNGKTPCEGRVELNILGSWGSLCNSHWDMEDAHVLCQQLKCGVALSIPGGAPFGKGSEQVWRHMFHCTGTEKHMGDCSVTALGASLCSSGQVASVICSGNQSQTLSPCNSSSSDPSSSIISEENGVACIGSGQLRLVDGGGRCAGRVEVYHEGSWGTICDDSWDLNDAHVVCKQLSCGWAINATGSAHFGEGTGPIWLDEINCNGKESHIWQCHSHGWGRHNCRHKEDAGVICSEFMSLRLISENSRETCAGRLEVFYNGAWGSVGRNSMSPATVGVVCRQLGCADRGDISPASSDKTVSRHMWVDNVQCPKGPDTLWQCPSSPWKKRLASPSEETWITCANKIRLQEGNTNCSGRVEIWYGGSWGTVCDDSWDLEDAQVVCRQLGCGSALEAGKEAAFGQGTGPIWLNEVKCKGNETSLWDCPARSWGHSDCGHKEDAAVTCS
Description: (§1) To assess the affinity of selected purified clones to pCD163, pCD163-SRCR1-9-huFc or pCD163-SRCR4-7-huFc proteins were coated by amine coupling on a CM5 sensor ship (GE Healthcare). Surface plasmon resonance (SPR) (Biacore 3000, GE Healthcare) was used to determine the binding kinetics of selected single domain antibodies at pH7.4. Approximately 2000 RU of pCD163-SRCR1-9-huFc or pCD163-SRCR4-7-huFc, proteins at 20 or 30 µg/ml in Acetate buffer pH 5.0 or pH 5.5 were immobilized onto a CM5 chip using the standard amine coupling procedure.
(§2) 1x HBS-EP pH 7.4, were utilized as a running buffer during binding kinetic measurements. Purified VHH were injected at 3-fold dilution (300 nM; 100 nM; 33 nM; 11 nM; 3.7 nM; 1.2 nM; 0.4 nM; 0 nM), for 120 s, at a flow rate of 30 µl/min. RU levels were restored to base levels after regeneration with 10 µl of 10 mM NaOH / 1 M NaCl and 10 µl of 10 mM Glycine pH 1.5 between samples. Fitting 1:1 binding with mass transfer was applied to the set sample curves using the simultaneous fitting option of the BIAevaluation software to calculate the kinetic constants of the antibody-antigen interactions including association rate (ka), dissociation rate (kd) and affinity (KD). Curves were removed from the fitting after visual examination of the residuals and considering the value of Chi2: a minimum of 4 curves were considered for the simultaneous fitting.
B1 gave a Kd of 14.7 nM, a koff of 0.00583 s⁻¹ and a kon of 396000 M⁻¹ s⁻¹. B2 showed a Kd of 7.08 nM, a koff of 0.0178 s⁻¹ and a kon of 2.52e+06 M⁻¹ s⁻¹. B3 gave a Kd of 3.1 nM, a koff of 0.00927 s⁻¹ and a kon of 2.99e+06 M⁻¹ s⁻¹. Binder B4 has a Kd of 20 nM, a koff of 0.0108 s⁻¹ and a kon of 539000 M⁻¹ s⁻¹. B5 showed a Kd of 44.3 nM, a koff of 0.00972 s⁻¹ and a kon of 219000 M⁻¹ s⁻¹. In the case of B6, the Kd is reported as 75.2 nM, the koff is reported as 0.083 s⁻¹ and the kon is reported as 1.1e+06 M⁻¹ s⁻¹. With B7 the Kd was 1.03 nM, the koff was 0.00617 s⁻¹ and the kon was 5.97e+06 M⁻¹ s⁻¹. B8 was tested, and the Kd was 16.5 nM, the koff was 0.0134 s⁻¹ and the kon was 814000 M⁻¹ s⁻¹. B9 was tested, and the Kd was 8.77 nM, the koff was 0.0102 s⁻¹ and the kon was 1.16e+06 M⁻¹ s⁻¹. B10 was tested, and the Kd was 9.15 nM, the koff was 0.00865 s⁻¹ and the kon was 945000 M⁻¹ s⁻¹. B11 gave a Kd of 71.4 nM, a koff of 0.01 s⁻¹ and a kon of 140000 M⁻¹ s⁻¹.

What follows are binders tested against T1, pCD163-SRCR1-9-huFc (assay: SPR; lower end of the range, tied by Table 7 to VHH 012 on pCD163:SRCR1-9-Fc (1.03)).
Description: as §1, §2
B7 gave a Kd of 1 to 75 nM.

These binders were tested against T1, pCD163-SRCR1-9-huFc (assay: SPR; upper end of the range, tied by Table 7 to VHH 017 on pCD163:SRCR1-9-Fc (75.20)).
Description: as §1, §2
With B6 the Kd was 1 to 75 nM.
